B1: TPR t1 (parent)
chain: GACCAAUCUGCCCUCAGAGCUCGAGAACAUCUUCGGAUGCAGAGGAGGCAGGCUUCGGUGGCGCGAUAGCGCCAACGUCCUCAACCUCCAAUGCAUCCCACCACAUGAUGAUGCCUGAAGAGCCUUGGUUUUUUG

Variants of: B1
Assay: polymerase ribozyme fitness, log enrichment relative to wild type (log ratio); higher = more active; in vitro selection for triplet polymerase activity
Outline: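 Genotype fitness is the logarithm of its enrichment divided by wild-type enrichment, using inverse-variance-weighted averages of replicates. That logarithm is base 2. Enrichment was measured by Illumina sequencing of input and output libraries from one triplicate in vitro selection round, with frozen incubation at −7 °C, on PCR-built, transcribed mutant libraries of each subunit of a heterodimeric triplet polymerase ribozyme, retaining genotypes with ≥10 input reads and ≥1 read per output.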

Variant | polymerase ribozyme fitness (log ratio)
C12A G117U U131C | -4.17
C12U A121C | 2.05
C12U G47A | -0.468
C12A U14A C28U C85U | -3.93
C12A C97A | -4.79
C12G G19C | -1.64
C12U C56U G69U U112G A119U | -2.27
C12G C20A C49A | -2.49
C11U U92A | -2.13
C12G U59G G60U A95U G110C | -5.19
C12G A16U G48A C82A | -3.19
C12G C73A C79A C86U | -0.241
C12A C20A C64A C88U U116C | -6.74
C12A A16U G44C C94U G117C U129G | -5.45
C12A G57A | -1.19
C12G U55A U87A | 0.0839
C12G C88A | 0.489
C12G A29U C62G | -2.88
C12G G45A U78C A84C U106G | -2.62
C12A C15A C72A G110U | -4.88
C12G C15G A46U A74G U78A C114A | -6.73

Variant | polymerase ribozyme fitness (log ratio)
C11U U33A C85G C101U | -5.74
C12G C73A C88U G122A | -1.14
C12A C62U | -0.927
C12A G48U C53A C101U G113C G120A | -3.38
C12A C49A G63U A121U U132C G135A | 1.42
C12G C72A | -0.123
C12A A46U C82U | -1.99
C12U G17C C97G C115G | -3.25
C12G G47C G52A C64U C123A | -3.61
C12A C53G G69A C115A U116A | -7.23
C12A G61U C70U U81G | -4.98
C12A G23A C82G | -7.42
C12A G47A C70U C88U U106A | -2.59
C12U C70U C80A C97U A121G U133A | -3.61
C12A G61U C104U A108C A121U | -3.79
C12U G44C C82G A103G G117C | -6.32
C12U G42C C62A G120U U126C | -1.07
C12U C94U | -0.204
C12U C94A | -0.148
C12G C40U C49U G65C C114G | -6.07
C12G C13A A50C A119U G127A | -1.75

Variant | polymerase ribozyme fitness (log ratio)
C12A G19A G60U | -2.57
C12A C22G | -2.6
C12G G47C A66U A90C G120C U129A | -6.06
C11U U33G | -5.16
C12U A50U C73U U125A | -0.873
C12U C64U | 0.0316
C12U C64A | -5.62
C12G C62U A68C U116C A121C U129A | -6.48
C12A C56U A95G C115A C124A | 0.771
C12A G69U G107C G117C | -6.81
C12G C124A | 1.61
C12U A50G G71U U130C | 0.0947
C12A G117C A121G | -3.52
C12A C13G G35A | -5.31
C12G U14C U59G | -1.18
C12G U14C G17U C22G C49G G117C U130A | -6.43
C12A G113U | -2.09
C12A G113C | -2.64
C12A G71U A91C | -1.77
C12A G58A | -0.259
C12A A41U G77C A83G C85A U125A | -4.14

Variant | polymerase ribozyme fitness (log ratio)
C12A C64U C115U G120A C123A | -1.16
C12G A18U G39A G52A G60A C82U U106G G120A | -3.95
C12A C13A U59G G127A | -3.41
C12U A18C C34U G120C | -4.87
C12A C80U G120U U132A | 1.64
C12A G25U A27C A37C U38A C70G C82U C115U | -6.08
C11U U106G | -1.1
C12A C72U | -0.97
C12A C72G | -0.22
C12A C62A G77A | -3.27
C12U G17U C28U G39A G42C C56U C70G U106A U109C U112C | -6.21
C12G U14G G107U C114U G120U C123U U133A | -4.14
C12U A16U G63C A105C C124G | -2.25
C12U A18G G63C C88G A90C C114A G122A | -5.09
C12A C99U C123U U129G | -3.57
C12U C62A C73U G77U | -3.65
C12G G51C | -3.21
C12A C40U C56A U96A G117A | -5.83
C12A C53A G61U U109G G117C U125A U126C | -7.8
C12U A27G G42A A90G G93U A95G | -2.39

— the RNAGym collection of RNA variant scans (doi:10.1073/pnas.2313332121)
